T1: EsCas13d, nuclease-dead (Eubacterium siraeum, UniProt B0MS50, R295A;H300A;R849A;H854A)
T1 sequence: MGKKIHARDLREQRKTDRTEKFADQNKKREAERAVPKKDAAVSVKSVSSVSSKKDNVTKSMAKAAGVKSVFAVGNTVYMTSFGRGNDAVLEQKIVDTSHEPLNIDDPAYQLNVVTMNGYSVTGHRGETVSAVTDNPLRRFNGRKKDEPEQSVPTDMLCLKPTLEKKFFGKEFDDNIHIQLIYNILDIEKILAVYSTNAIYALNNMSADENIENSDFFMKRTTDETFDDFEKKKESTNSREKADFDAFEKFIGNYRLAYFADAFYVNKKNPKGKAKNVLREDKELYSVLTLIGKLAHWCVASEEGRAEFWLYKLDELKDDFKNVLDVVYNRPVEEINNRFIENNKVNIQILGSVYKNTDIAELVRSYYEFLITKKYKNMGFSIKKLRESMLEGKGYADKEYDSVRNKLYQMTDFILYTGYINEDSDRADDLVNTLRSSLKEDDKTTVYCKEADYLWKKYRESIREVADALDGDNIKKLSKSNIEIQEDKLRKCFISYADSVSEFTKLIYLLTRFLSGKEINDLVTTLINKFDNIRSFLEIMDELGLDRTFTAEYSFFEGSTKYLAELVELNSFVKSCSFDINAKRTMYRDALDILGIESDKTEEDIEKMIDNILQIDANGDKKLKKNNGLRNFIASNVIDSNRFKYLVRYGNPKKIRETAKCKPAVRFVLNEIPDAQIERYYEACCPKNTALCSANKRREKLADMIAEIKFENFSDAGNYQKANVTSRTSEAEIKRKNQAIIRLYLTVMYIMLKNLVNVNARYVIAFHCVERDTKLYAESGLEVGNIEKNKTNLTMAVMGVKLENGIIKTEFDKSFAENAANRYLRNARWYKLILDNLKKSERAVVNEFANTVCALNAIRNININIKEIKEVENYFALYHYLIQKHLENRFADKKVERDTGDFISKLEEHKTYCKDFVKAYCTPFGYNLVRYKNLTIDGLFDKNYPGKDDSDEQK

B1: target 1 MT 5'PFS UUA 3'PFS UUC (mixed)
RNA 1: CACCCGUGCAAAAAUGCAGGGGUCUAAAACUGAGCGGAUAACCUCUCUAUGG
RNA 2: GGGAAUGGAUCCACAUCUACGAAUUCUUACCAUAGAGAGGUUAUCCGCUCAUUCAGAUCGGAAGAGCACACGU
B2: target 1 insC 3' of 12,insC 3' of 8 (mixed)
RNA 1: CACCCGUGCAAAAAUGCAGGGGUCUAAAACUGAGCGGAUAACCUCUCUAUGG
RNA 2: GGGAAUGGAUCCACAUCUACGAAUUCGUACCAUAGAGAGGCUUAUCCCGCUCACCGAGAUCGGAAGAGCACACGU
B3: target 1 MT 5'PFS UGC 3'PFS UAU (mixed)
RNA 1: CACCCGUGCAAAAAUGCAGGGGUCUAAAACUGAGCGGAUAACCUCUCUAUGG
RNA 2: GGGAAUGGAUCCACAUCUACGAAUUCUGCCCAUAGAGAGGUUAUCCGCUCAUAUAGAUCGGAAGAGCACACGU
B4: target 1 MT 5'PFS GGA 3'PFS UGA (mixed)
RNA 1: CACCCGUGCAAAAAUGCAGGGGUCUAAAACUGAGCGGAUAACCUCUCUAUGG
RNA 2: GGGAAUGGAUCCACAUCUACGAAUUCGGACCAUAGAGAGGUUAUCCGCUCAUGAAGAUCGGAAGAGCACACGU
B5: target 1 MT 5'PFS UCC 3'PFS UAG (mixed)
RNA 1: CACCCGUGCAAAAAUGCAGGGGUCUAAAACUGAGCGGAUAACCUCUCUAUGG
RNA 2: GGGAAUGGAUCCACAUCUACGAAUUCUCCCCAUAGAGAGGUUAUCCGCUCAUAGAGAUCGGAAGAGCACACGU
B6: target 1 del5,del13 (mixed)
RNA 1: CACCCGUGCAAAAAUGCAGGGGUCUAAAACUGAGCGGAUAACCUCUCUAUGG
RNA 2: GGGAAUGGAUCCACAUCUACGAAUUCGUACCAUAGAGAGUUAUCCCUCACCGAGAUCGGAAGAGCACACGU
B7: target 1 MT 5'PFS GAG 3'PFS ACU (mixed)
RNA 1: CACCCGUGCAAAAAUGCAGGGGUCUAAAACUGAGCGGAUAACCUCUCUAUGG
RNA 2: GGGAAUGGAUCCACAUCUACGAAUUCGAGCCAUAGAGAGGUUAUCCGCUCAACUAGAUCGGAAGAGCACACGU
B8: target 1 MT 5'PFS GUG 3'PFS CCG (mixed)
RNA 1: CACCCGUGCAAAAAUGCAGGGGUCUAAAACUGAGCGGAUAACCUCUCUAUGG
RNA 2: GGGAAUGGAUCCACAUCUACGAAUUCGUGCCAUAGAGAGGUUAUCCGCUCACCGAGAUCGGAAGAGCACACGU
B9: target 1 MT 5'PFS CAA 3'PFS UGA (mixed)
RNA 1: CACCCGUGCAAAAAUGCAGGGGUCUAAAACUGAGCGGAUAACCUCUCUAUGG
RNA 2: GGGAAUGGAUCCACAUCUACGAAUUCCAACCAUAGAGAGGUUAUCCGCUCAUGAAGAUCGGAAGAGCACACGU
B10: target 1 insU 3' of 18,insA 3' of 12 (mixed)
RNA 1: CACCCGUGCAAAAAUGCAGGGGUCUAAAACUGAGCGGAUAACCUCUCUAUGG
RNA 2: GGGAAUGGAUCCACAUCUACGAAUUCGUACCAUAUGAGAGGAUUAUCCGCUCACCGAGAUCGGAAGAGCACACGU
B11: target 1 MT 5'PFS GCG 3'PFS ACC (mixed)
RNA 1: CACCCGUGCAAAAAUGCAGGGGUCUAAAACUGAGCGGAUAACCUCUCUAUGG
RNA 2: GGGAAUGGAUCCACAUCUACGAAUUCGCGCCAUAGAGAGGUUAUCCGCUCAACCAGAUCGGAAGAGCACACGU
B12: target 1 insU 3' of 2,insC 3' of 1 (mixed)
RNA 1: CACCCGUGCAAAAAUGCAGGGGUCUAAAACUGAGCGGAUAACCUCUCUAUGG
RNA 2: GGGAAUGGAUCCACAUCUACGAAUUCGUACCAUAGAGAGGUUAUCCGCUCUACCCGAGAUCGGAAGAGCACACGU
B13: target 1 MT 5'PFS GUG 3'PFS CCU (mixed)
RNA 1: CACCCGUGCAAAAAUGCAGGGGUCUAAAACUGAGCGGAUAACCUCUCUAUGG
RNA 2: GGGAAUGGAUCCACAUCUACGAAUUCGUGCCAUAGAGAGGUUAUCCGCUCACCUAGAUCGGAAGAGCACACGU
B14: target 1 MT 5'PFS GGA 3'PFS UGU (mixed)
RNA 1: CACCCGUGCAAAAAUGCAGGGGUCUAAAACUGAGCGGAUAACCUCUCUAUGG
RNA 2: GGGAAUGGAUCCACAUCUACGAAUUCGGACCAUAGAGAGGUUAUCCGCUCAUGUAGAUCGGAAGAGCACACGU
B15: target 1 MT 5'PFS UCG 3'PFS ACC (mixed)
RNA 1: CACCCGUGCAAAAAUGCAGGGGUCUAAAACUGAGCGGAUAACCUCUCUAUGG
RNA 2: GGGAAUGGAUCCACAUCUACGAAUUCUCGCCAUAGAGAGGUUAUCCGCUCAACCAGAUCGGAAGAGCACACGU
B16: target 1 MT 5'PFS GGA 3'PFS UGC (mixed)
RNA 1: CACCCGUGCAAAAAUGCAGGGGUCUAAAACUGAGCGGAUAACCUCUCUAUGG
RNA 2: GGGAAUGGAUCCACAUCUACGAAUUCGGACCAUAGAGAGGUUAUCCGCUCAUGCAGAUCGGAAGAGCACACGU
B17: target 1 MT 5'PFS AAU 3'PFS UGA (mixed)
RNA 1: CACCCGUGCAAAAAUGCAGGGGUCUAAAACUGAGCGGAUAACCUCUCUAUGG
RNA 2: GGGAAUGGAUCCACAUCUACGAAUUCAAUCCAUAGAGAGGUUAUCCGCUCAUGAAGAUCGGAAGAGCACACGU
B18: target 1 MT 5'PFS UCG 3'PFS ACA (mixed)
RNA 1: CACCCGUGCAAAAAUGCAGGGGUCUAAAACUGAGCGGAUAACCUCUCUAUGG
RNA 2: GGGAAUGGAUCCACAUCUACGAAUUCUCGCCAUAGAGAGGUUAUCCGCUCAACAAGAUCGGAAGAGCACACGU
B19: target 1 MT 5'PFS GAG 3'PFS ACA (mixed)
RNA 1: CACCCGUGCAAAAAUGCAGGGGUCUAAAACUGAGCGGAUAACCUCUCUAUGG
RNA 2: GGGAAUGGAUCCACAUCUACGAAUUCGAGCCAUAGAGAGGUUAUCCGCUCAACAAGAUCGGAAGAGCACACGU
B20: target 1 MT 5'PFS UUG 3'PFS UUG (mixed)
RNA 1: CACCCGUGCAAAAAUGCAGGGGUCUAAAACUGAGCGGAUAACCUCUCUAUGG
RNA 2: GGGAAUGGAUCCACAUCUACGAAUUCUUGCCAUAGAGAGGUUAUCCGCUCAUUGAGAUCGGAAGAGCACACGU
B21: target 1 MT 5'PFS GGA 3'PFS AUU (mixed)
RNA 1: CACCCGUGCAAAAAUGCAGGGGUCUAAAACUGAGCGGAUAACCUCUCUAUGG
RNA 2: GGGAAUGGAUCCACAUCUACGAAUUCGGACCAUAGAGAGGUUAUCCGCUCAAUUAGAUCGGAAGAGCACACGU
B22: target 1 MT 5'PFS GUG 3'PFS CUG (mixed)
RNA 1: CACCCGUGCAAAAAUGCAGGGGUCUAAAACUGAGCGGAUAACCUCUCUAUGG
RNA 2: GGGAAUGGAUCCACAUCUACGAAUUCGUGCCAUAGAGAGGUUAUCCGCUCACUGAGAUCGGAAGAGCACACGU
B23: target 1 MT 5'PFS UCC 3'PFS UAU (mixed)
RNA 1: CACCCGUGCAAAAAUGCAGGGGUCUAAAACUGAGCGGAUAACCUCUCUAUGG
RNA 2: GGGAAUGGAUCCACAUCUACGAAUUCUCCCCAUAGAGAGGUUAUCCGCUCAUAUAGAUCGGAAGAGCACACGU
B24: target 1 MT 5'PFS GAG 3'PFS ACG (mixed)
RNA 1: CACCCGUGCAAAAAUGCAGGGGUCUAAAACUGAGCGGAUAACCUCUCUAUGG
RNA 2: GGGAAUGGAUCCACAUCUACGAAUUCGAGCCAUAGAGAGGUUAUCCGCUCAACGAGAUCGGAAGAGCACACGU
B25: target 1 MT 5'PFS UUA 3'PFS UUG (mixed)
RNA 1: CACCCGUGCAAAAAUGCAGGGGUCUAAAACUGAGCGGAUAACCUCUCUAUGG
RNA 2: GGGAAUGGAUCCACAUCUACGAAUUCUUACCAUAGAGAGGUUAUCCGCUCAUUGAGAUCGGAAGAGCACACGU
B26: target 1 MT 5'PFS CCA 3'PFS UAA (mixed)
RNA 1: CACCCGUGCAAAAAUGCAGGGGUCUAAAACUGAGCGGAUAACCUCUCUAUGG
RNA 2: GGGAAUGGAUCCACAUCUACGAAUUCCCACCAUAGAGAGGUUAUCCGCUCAUAAAGAUCGGAAGAGCACACGU
B27: target 1 MT 5'PFS CAU 3'PFS ACU (mixed)
RNA 1: CACCCGUGCAAAAAUGCAGGGGUCUAAAACUGAGCGGAUAACCUCUCUAUGG
RNA 2: GGGAAUGGAUCCACAUCUACGAAUUCCAUCCAUAGAGAGGUUAUCCGCUCAACUAGAUCGGAAGAGCACACGU
B28: target 1 MT 5'PFS CAU 3'PFS UCU (mixed)
RNA 1: CACCCGUGCAAAAAUGCAGGGGUCUAAAACUGAGCGGAUAACCUCUCUAUGG
RNA 2: GGGAAUGGAUCCACAUCUACGAAUUCCAUCCAUAGAGAGGUUAUCCGCUCAUCUAGAUCGGAAGAGCACACGU

The binders below were run against T1, EsCas13d, nuclease-dead (assay: crRNA (strand 1, pre-loaded); Mg2+; 40 mM Tris-HCl pH 7.5, 150 mM NaCl, 6 mM MgCl2, 1 mM DTT, 0.1% Tween-20, 0.2 mg/ml BSA; 25 C; 10 min per concentration, then washed). Conditions: tags: His6-TwinStrep-SUMO cleaved; N-terminal SNAP kept (SNAP-Surface 488); label: 3' end held by stalled T7 RNA polymerase.

Going from B1 to B2, the Kd rises from 0.0175 ± 0.0039 µM to 0.0321 ± 0.0028 µM (1.8-fold).

B3 and B4 are within error of each other in Kd: 0.0138 ± 0.005 µM for the first, 0.0162 ± 0.00315 µM for the second.

Going from B5 to B6, the Kd falls from 0.049 ± 0.0225 µM to 0.0115 ± 0.0009 µM (4.3-fold). The second binds more tightly here.

Compared with B7, B8 is 2.1-fold lower in Kd: 0.0249 ± 0.00475 µM for the first, 0.0117 ± 0.00105 µM for the second. The second binds more tightly here.

First: B9
Second: B10
The Kd of the first is 1.5-fold lower: about 0.041 µM for the first, 0.063 ± 0.014 µM for the second. The first binds more tightly here.

B11 and B12 are within error of each other in Kd: 0.02 ± 0.0085 µM for the first, 0.0111 ± 0.0005 µM for the second.

Going from B13 to B14, the Kd rises from 0.0106 ± 0.0011 µM to 0.048 ± 0.013 µM (4.5-fold).

First: B15
Second: B16
The Kd of the first is 3.9-fold higher: 0.0325 ± 0.014 µM for the first, 0.0083 ± 0.0011 µM for the second.

B17 and B18 are within error of each other in Kd: 0.061 ± 0.017 µM for the first, 0.036 ± 0.008 µM for the second.

Compared with B19, B20 is 2.4-fold lower in Kd: about 0.043 µM for the first, 0.0182 ± 0.0032 µM for the second.

First: B21
Second: B22
The Kd of the first is 1.7-fold higher: 0.0176 ± 0.00355 µM for the first, 0.0103 ± 0.0006 µM for the second. The second binds more tightly here.

Going from B23 to B24, the Kd rises from about 0.0126 µM to 0.032 ± 0.0085 µM (2.5-fold). The first binds more tightly here.

Compared with B25, B26 is 3.1-fold lower in Kd: 0.0118 ± 0.0012 µM for the first, 0.00385 ± 0.0019 µM for the second. The second binds more tightly here.

B27 and B28 are within error of each other in Kd: 0.0615 ± 0.026 µM for the first, about 0.065 µM for the second.

Reference: paper PMC10786891, “Massively parallel profiling of RNA-targeting CRISPR-Cas13d”
